Reference: patent US20130210709A1 (ANCHOR THERAPEUTICS, published 2013)
Ends that are not written are not given here. * marks the point of attachment. Palmitoyl = CCCCCCCCCCCCCCCC(=O)*; NHhexadecyl = CCCCCCCCCCCCCCCCN*

Target: CXCR4 receptor (human, UniProt P61073 1-352)
Assay: cell-based or functional assay

Sequence of CXCR4 receptor (P61073 whole entry): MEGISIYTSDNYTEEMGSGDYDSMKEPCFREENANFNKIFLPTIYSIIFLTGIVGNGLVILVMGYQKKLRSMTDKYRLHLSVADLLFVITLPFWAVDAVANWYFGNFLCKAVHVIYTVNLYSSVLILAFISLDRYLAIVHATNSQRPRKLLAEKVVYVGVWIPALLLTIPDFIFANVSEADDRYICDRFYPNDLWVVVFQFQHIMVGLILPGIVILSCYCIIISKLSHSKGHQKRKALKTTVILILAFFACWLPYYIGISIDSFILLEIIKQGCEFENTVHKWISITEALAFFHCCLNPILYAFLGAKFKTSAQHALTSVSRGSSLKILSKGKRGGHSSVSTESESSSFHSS

| Binder | AUC (% of), CHTX, SUP B-15, 1.0 uM [%] | Max (% of), CHTX, SUP B-15, 1.0 uM [%] | Peak Ratio, CHTX, SUP B-15, 1.0 uM | AUC (% of), CHTX, CEM, 1.0 uM [%] | Max (% of), CHTX, CEM, 1.0 uM [%] | Peak Ratio, CHTX, CEM, 1.0 uM | also measured |
| --- | --- | --- | --- | --- | --- | --- | --- |
| Palmitoyl-KKLRSMTDKYRL-NH2 (SMILES CCCCCCCCCCCCCCCC(=O)N[C@@H](CCCCN)C(=O)N[C@@H](CCCCN)C(=O)N[C@@H](CC(C)C)C(=O)N[C@@H](CCCNC(=N)N)C(=O)N[C@@H](CO)C(=O)N[C@@H](CCSC)C(=O)N[C@H](C(=O)N[C@@H](CC(=O)O)C(=O)N[C@@H](CCCCN)C(=O)N[C@@H](Cc1ccc(O)cc1)C(=O)N[C@@H](CCCNC(=N)N)C(=O)N[C@@H](CC(C)C)C(N)=O)[C@@H](C)O) [Compound No. 44 (Pal-KKLRSMTDKYRL-amide)] | 25.9 | 31.5 | 0.2 | – | – | – | – |
| Palmitoyl-KKLRSMTDKYRLH-NH2 (SMILES CCCCCCCCCCCCCCCC(=O)N[C@@H](CCCCN)C(=O)N[C@@H](CCCCN)C(=O)N[C@@H](CC(C)C)C(=O)N[C@@H](CCCNC(=N)N)C(=O)N[C@@H](CO)C(=O)N[C@@H](CCSC)C(=O)N[C@H](C(=O)N[C@@H](CC(=O)O)C(=O)N[C@@H](CCCCN)C(=O)N[C@@H](Cc1ccc(O)cc1)C(=O)N[C@@H](CCCNC(=N)N)C(=O)N[C@@H](CC(C)C)C(=O)N[C@@H](Cc1c[nH]cn1)C(N)=O)[C@@H](C)O) [CXCR-4 receptor Compound No. 43] | 70.8 | 55.8 | 0.04 | – | – | – | Peak Ratio, CHTX, CEM, 0.01 uM: 1; Peak Ratio, CHTX, CEM, 0.03 uM: 1; Peak Ratio, CHTX, CEM, 0.1 uM: 0.2; Peak Ratio, CHTX, CEM, 0.3 uM: 0.04; Peak Ratio, CHTX, CEM, 3.0 uM: 0.2 |
| Palmitoyl-VMGYQKKLRSMTD-NH2 (SMILES CCCCCCCCCCCCCCCC(=O)N[C@H](C(=O)N[C@@H](CCSC)C(=O)NCC(=O)N[C@@H](Cc1ccc(O)cc1)C(=O)N[C@@H](CCC(N)=O)C(=O)N[C@@H](CCCCN)C(=O)N[C@@H](CCCCN)C(=O)N[C@@H](CC(C)C)C(=O)N[C@@H](CCCNC(=N)N)C(=O)N[C@@H](CO)C(=O)N[C@@H](CCSC)C(=O)N[C@H](C(=O)N[C@@H](CC(=O)O)C(N)=O)[C@@H](C)O)C(C)C) [CXCR4 i1 loop compound 35] | 31.7 | 49.3 | 0.2 | 57.9 | 57 | 1 | – |
| MGYQKKLRSMTD-NH2 (not fully specified (N-terminus); also: further groups not given here) [CXCR4 i1 loop compound 33] | – | – | – | – | – | 1 | – |
| Palmitoyl-KKLRSMTDKYR-NH2 (SMILES CCCCCCCCCCCCCCCC(=O)N[C@@H](CCCCN)C(=O)N[C@@H](CCCCN)C(=O)N[C@@H](CC(C)C)C(=O)N[C@@H](CCCNC(=N)N)C(=O)N[C@@H](CO)C(=O)N[C@@H](CCSC)C(=O)N[C@H](C(=O)N[C@@H](CC(=O)O)C(=O)N[C@@H](CCCCN)C(=O)N[C@@H](Cc1ccc(O)cc1)C(=O)N[C@@H](CCCNC(=N)N)C(N)=O)[C@@H](C)O) [CXCR4 i1 loop compound 45] | 178 | 194 | 1 | – | – | – | – |
| Ac-MGYQKKLRSMTDK-NHhexadecyl (SMILES CCCCCCCCCCCCCCCCNC(=O)[C@H](CCCCN)NC(=O)[C@H](CC(=O)O)NC(=O)[C@@H](NC(=O)[C@H](CCSC)NC(=O)[C@H](CO)NC(=O)[C@H](CCCNC(=N)N)NC(=O)[C@H](CC(C)C)NC(=O)[C@H](CCCCN)NC(=O)[C@H](CCCCN)NC(=O)[C@H](CCC(N)=O)NC(=O)[C@H](Cc1ccc(O)cc1)NC(=O)CNC(=O)[C@H](CCSC)NC(C)=O)[C@@H](C)O) [CXCR4 i1 loop compound 59] | – | – | – | 69 | 84.5 | 1 | AUC (% of), CHTX, CEM, 1.0 um: 51.6%; Max (% of), CHTX, CEM, 1.0 um: 59.8%; Peak Ratio, CHTX, CEM, 1.0 um: 1 |
| Palmitoyl-MGYQKKLRSMTDKYRLHLSV-NH2 (SMILES CCCCCCCCCCCCCCCC(=O)N[C@@H](CCSC)C(=O)NCC(=O)N[C@@H](Cc1ccc(O)cc1)C(=O)N[C@@H](CCC(N)=O)C(=O)N[C@@H](CCCCN)C(=O)N[C@@H](CCCCN)C(=O)N[C@@H](CC(C)C)C(=O)N[C@@H](CCCNC(=N)N)C(=O)N[C@@H](CO)C(=O)N[C@@H](CCSC)C(=O)N[C@H](C(=O)N[C@@H](CC(=O)O)C(=O)N[C@@H](CCCCN)C(=O)N[C@@H](Cc1ccc(O)cc1)C(=O)N[C@@H](CCCNC(=N)N)C(=O)N[C@@H](CC(C)C)C(=O)N[C@@H](Cc1c[nH]cn1)C(=O)N[C@@H](CC(C)C)C(=O)N[C@@H](CO)C(=O)N[C@H](C(N)=O)C(C)C)[C@@H](C)O) [CXCR4 i1 loop compound 55] | – | – | – | – | – | 0.2 | – |
| MGYQKKLRSMTDKYRI-NH2 (not fully specified (N-terminus); also: further groups not given here) [CXCR4 i1 loop compound 48] | – | – | – | 53 | 53.5 | 5 | – |
| Palmitoyl-MGYQKKLRSMTDKY-NH2 (SMILES CCCCCCCCCCCCCCCC(=O)N[C@@H](CCSC)C(=O)NCC(=O)N[C@@H](Cc1ccc(O)cc1)C(=O)N[C@@H](CCC(N)=O)C(=O)N[C@@H](CCCCN)C(=O)N[C@@H](CCCCN)C(=O)N[C@@H](CC(C)C)C(=O)N[C@@H](CCCNC(=N)N)C(=O)N[C@@H](CO)C(=O)N[C@@H](CCSC)C(=O)N[C@H](C(=O)N[C@@H](CC(=O)O)C(=O)N[C@@H](CCCCN)C(=O)N[C@@H](Cc1ccc(O)cc1)C(N)=O)[C@@H](C)O) [CXCR4 i1 loop compound 37] | 63.5 | 91.1 | 0.2 | 92.3 | 97.8 | 0.04 | – |
| Palmitoyl-MGYQKKLRSMTDKYRI-NH2 (SMILES CCCCCCCCCCCCCCCC(=O)N[C@@H](CCSC)C(=O)NCC(=O)N[C@@H](Cc1ccc(O)cc1)C(=O)N[C@@H](CCC(N)=O)C(=O)N[C@@H](CCCCN)C(=O)N[C@@H](CCCCN)C(=O)N[C@@H](CC(C)C)C(=O)N[C@@H](CCCNC(=N)N)C(=O)N[C@@H](CO)C(=O)N[C@@H](CCSC)C(=O)N[C@H](C(=O)N[C@@H](CC(=O)O)C(=O)N[C@@H](CCCCN)C(=O)N[C@@H](Cc1ccc(O)cc1)C(=O)N[C@@H](CCCNC(=N)N)C(=O)N[C@H](C(N)=O)[C@@H](C)CC)[C@@H](C)O) [CXCR4 i1 loop compound 49] | – | – | – | 50.9 | 62.7 | 0.2 | – |
| Palmitoyl-KKLRSMTDKY-NH2 (SMILES CCCCCCCCCCCCCCCC(=O)N[C@@H](CCCCN)C(=O)N[C@@H](CCCCN)C(=O)N[C@@H](CC(C)C)C(=O)N[C@@H](CCCNC(=N)N)C(=O)N[C@@H](CO)C(=O)N[C@@H](CCSC)C(=O)N[C@H](C(=O)N[C@@H](CC(=O)O)C(=O)N[C@@H](CCCCN)C(=O)N[C@@H](Cc1ccc(O)cc1)C(N)=O)[C@@H](C)O) [CXCR4 i1 loop compound 46] | 87.2 | 82.9 | 0.2 | – | – | – | – |
| Palmitoyl-SGYQKKLRSSTD-NH2 (SMILES CCCCCCCCCCCCCCCC(=O)N[C@@H](CO)C(=O)NCC(=O)N[C@@H](Cc1ccc(O)cc1)C(=O)N[C@@H](CCC(N)=O)C(=O)N[C@@H](CCCCN)C(=O)N[C@@H](CCCCN)C(=O)N[C@@H](CC(C)C)C(=O)N[C@@H](CCCNC(=N)N)C(=O)N[C@@H](CO)C(=O)N[C@@H](CO)C(=O)N[C@H](C(=O)N[C@@H](CC(=O)O)C(N)=O)[C@@H](C)O) [CXCR4 i1 loop compound 69] | – | – | – | 100 | 93.1 | 1 | – |
| MGYQKKLRSMTDKYRLHL-NH2 (not fully specified (N-terminus); also: N-terminal T-L: Myr, dual lipid backbone) [CXCR4 i1 loop compound 54] | – | – | – | – | – | 1 | – |
| Palmitoyl-MGYQKKLRSMTDK-NH2 (SMILES CCCCCCCCCCCCCCCC(=O)N[C@@H](CCSC)C(=O)NCC(=O)N[C@@H](Cc1ccc(O)cc1)C(=O)N[C@@H](CCC(N)=O)C(=O)N[C@@H](CCCCN)C(=O)N[C@@H](CCCCN)C(=O)N[C@@H](CC(C)C)C(=O)N[C@@H](CCCNC(=N)N)C(=O)N[C@@H](CO)C(=O)N[C@@H](CCSC)C(=O)N[C@H](C(=O)N[C@@H](CC(=O)O)C(=O)N[C@@H](CCCCN)C(N)=O)[C@@H](C)O) [CXCR4 i1 loop compound 36] | – | – | – | 102 | 119 | 0.2 | Peak Ratio, CHTX, SUP B15, 1.0 uM: 0.2 |
